# Paper PMC7890063, “Bioinformatics-aided identification, characterization and applications of mushroom linalool synthases” (Communications Biology, 2021)
# T1: Sc.LNS (Streptomyces clavuligerus, UniProt D5SL78)
# T1 construct: gene SCLAV_p1185; codon-optimised gene in pET-11a, expressed in E. coli with mevalonate pathway, not purified
# T1 sequence (D5SL78 1-329): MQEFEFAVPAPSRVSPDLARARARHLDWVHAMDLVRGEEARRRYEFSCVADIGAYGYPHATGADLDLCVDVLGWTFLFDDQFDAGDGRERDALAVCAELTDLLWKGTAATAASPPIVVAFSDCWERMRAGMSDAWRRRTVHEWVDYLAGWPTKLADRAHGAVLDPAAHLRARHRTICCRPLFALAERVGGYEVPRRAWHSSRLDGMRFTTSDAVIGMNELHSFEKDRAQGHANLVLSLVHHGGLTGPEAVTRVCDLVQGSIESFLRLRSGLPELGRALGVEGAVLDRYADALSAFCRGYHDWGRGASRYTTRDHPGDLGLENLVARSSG
# B1: Aa.LNS (AAE3_109435) (Cyclocybe aegerita) (protein)
# chain: MHSSTQLFTHSPTKMQIILPDLLCSWGYKGFLNPHYEGAKAESNTWIRPLVVKLFDERGQKAFAKDYTGLLASMTYPHHNKEFLCVACDMMNLFFVYDEYTDITPPETAQRLAKIVVNAMRNPDEIAALGEDSIGTMTKQFWRRAMTLLPPNGCNSESCIQHFIDYTEEYLTAVTREACDRSSGSVHAVKDYLAMRRATSGAGLMVGLLEFGLDLPEEVMKHEVIQELSTGAIDMYCLLNDMHSYASELSSGQASHNVITVVMHERNLSLQEAFDWLASYAAGVVKGFKTNLNRVPSFSELEDHSLHGEGMLRDRIQRYIDGLGQAVRAEDDWAFETTRYHGQNGPQIKLTRMLTIRPQVKDNYAKQAPRVEAPERPMLLEVRS
# How the values were obtained:
# [1] = test system: Ap.LS (Agrped1_689675); assay: PPi release, EnzChek pyrophosphate assay; type: biochemical, Agrocybe pediades; conditions: 37 °C, 1 h; enzyme 71.2% pure; product (R)-linalool; read-out: Monoterpene synthase
# Source text: PPi release, EnzChek pyrophosphate assay on Ap.LS (Agrped1_689675)
# [2] = biological target: T1, Sc.LNS; assay: product formation in E. coli, GC-MS; type: cell-based; conditions: E. coli with mevalonate pathway; product nerolidol
# [3] = substrate: CC(C)=CCC/C(C)=C/COP(=O)(O)OP(=O)(O)O; assay: PPi release, EnzChek pyrophosphate assay; type: biochemical, Cyclocybe aegerita; conditions: 37 °C, 1 h, enzyme 16.3% pure, product (R)-linalool
# Source text: (§1) PPi release, EnzChek pyrophosphate assay on Aa.LNS (AAE3_109435)
# [4] = substrate: CC(C)=CCC/C(C)=C/CC/C(C)=C/CO[P@@](=O)(O)OP(=O)(O)O; assay: PPi release, EnzChek pyrophosphate assay; type: biochemical, Cyclocybe aegerita; conditions: 37 °C, 1 h, enzyme 16.3% pure, product nerolidol
# Source text: as §1
molecule,measurement,setting,value
CC(C)=CCC/C(C)=C/COP(=O)(O)OP(=O)(O)O [GPP],Km,[1],3.8 ± 0.7 µM
"CC(C)=CCC/C(C)=C/CC/C(C)=C/COP(=O)(O)OP(=O)(O)O [(E,E)-FPP]","product formation in E. coli, GC-MS",[2],Sc.LNS produced a larger amount of nerolidol than linalool in E. coli
B1,Km,[3],6.7 ± 4.6 µM
same,kcat,[3],0.00833 ± 0.00167 s⁻¹
same,kcat/Km,[3],1670 M⁻¹ s⁻¹
same,Km,[4],9.0 ± 2.3 µM
same,kcat,[4],0.055 ± 0.005 s⁻¹
same,kcat/Km,[4],6670 M⁻¹ s⁻¹
